These results are taken from US20130052663A1 (ADDEX PHARMA SA, priority 2010, published 2013).

Assay [1] has as its target T1, chimeric TNFR1-PDGFR Receptor (Homo sapiens, UniProt P19438).
T1 construct: yielding the expression construct pcDNA3.1 hygro TNFR1(fl)-PDGFR(cd) vector; mouse PDGFRb cytoplasmic tyrosine kinase domain (fusion partner); expressed in transfected cells; host or cells: HEK293T cells stably expressing apoaequorin
Briefly: Ca2+-dependent aequorin luminescence in HEK293T Aequorin cells expressing chimeric TNFR1(fl)-PDGFR(cd) receptor, HTS setting. The class given is cell-based, human TNFR1 / mouse PDGFR. Particulars: for Effect on TNF-dependent intracellular calcium increase (luminescence AUC): 1 μM inhibitor, 3 ng/ml TNF. From the text:
HEK293T stably expressing Apoaequorin were generated using standard cloning techniques. The HEK293T cells expressing Apoaequorin (“Aequorin cells”) were then further transfected as described in Examples 1-3 so as to express the chimeric receptors 1-3 as listed in Table 3.
In particular, the HEK293T Apoaequorin cells were transfected with pcDNA3.1 hygro TNFR1-fl-PDGFR-cd vector as prepared in Example 1 using Optifect™ Transfection Reagent (Invitrogen), according to the manufacturer's protocol.
HEK293T cells expressing Apoaequorin and the chimeric receptor (Example 4) were plated in 384-well plates at a concentration of 12500 cells per well in a final volume of 50 μl. The next day culture supernatants were removed and 25 μl labeling buffer (DMEM:F12 plus 0.1% BSA) containing 2.5 μM Coelenterazine h (Dalton Pharma services), was added. Cells were incubated at room temperature for 6 hrs. A FDSS7000 reader from Hamamatsu (Japan) was used to examine intracellular calcium levels. […] The instrument features include detection with a camera of fluorescence or luminescence and automatically converts fluorescence or luminescence signals into numeric data. This digital data is then used to determine the concentration of calcium inside the analyzed cells. The information is automatically analyzed in terms of a positive, negative or null effect of each test compound being examined. This system allowed differences between untreated and treated cells to be measured, for example by measuring the calcium flux in cells.
After a baseline reading of 10 seconds, cells were incubated for 3 minutes with different doses of inhibitors or buffer controls. […] The results were analyzed using the FDSS analysis software from Hamamatsu. […]
HEK293T Aequorin cells expressing fusion proteins as described in Example 4 were treated or not treated with 3 ng/ml of TNF and 300 ng/ml of an anti-TNFR1 antagonist monoclonal antibody (MAB225, R&D Systems) was added to half of the samples exposed to TNF. Following 10 minutes of exposure after TNF addition, the area under the curve was determined for each sample. […]

Assay [2] addresses chimeric receptor TNFR1(fl)-PDGFR(cd): full length human TNFR1 fused to the cytoplasmic tyrosine kinase domain of mouse PDGFR (human TNFR1 / mouse PDGFR). The assay is described as follows: cell-based or functional assay.

T1 sequence (P19438 with tags, fused parts or gaps): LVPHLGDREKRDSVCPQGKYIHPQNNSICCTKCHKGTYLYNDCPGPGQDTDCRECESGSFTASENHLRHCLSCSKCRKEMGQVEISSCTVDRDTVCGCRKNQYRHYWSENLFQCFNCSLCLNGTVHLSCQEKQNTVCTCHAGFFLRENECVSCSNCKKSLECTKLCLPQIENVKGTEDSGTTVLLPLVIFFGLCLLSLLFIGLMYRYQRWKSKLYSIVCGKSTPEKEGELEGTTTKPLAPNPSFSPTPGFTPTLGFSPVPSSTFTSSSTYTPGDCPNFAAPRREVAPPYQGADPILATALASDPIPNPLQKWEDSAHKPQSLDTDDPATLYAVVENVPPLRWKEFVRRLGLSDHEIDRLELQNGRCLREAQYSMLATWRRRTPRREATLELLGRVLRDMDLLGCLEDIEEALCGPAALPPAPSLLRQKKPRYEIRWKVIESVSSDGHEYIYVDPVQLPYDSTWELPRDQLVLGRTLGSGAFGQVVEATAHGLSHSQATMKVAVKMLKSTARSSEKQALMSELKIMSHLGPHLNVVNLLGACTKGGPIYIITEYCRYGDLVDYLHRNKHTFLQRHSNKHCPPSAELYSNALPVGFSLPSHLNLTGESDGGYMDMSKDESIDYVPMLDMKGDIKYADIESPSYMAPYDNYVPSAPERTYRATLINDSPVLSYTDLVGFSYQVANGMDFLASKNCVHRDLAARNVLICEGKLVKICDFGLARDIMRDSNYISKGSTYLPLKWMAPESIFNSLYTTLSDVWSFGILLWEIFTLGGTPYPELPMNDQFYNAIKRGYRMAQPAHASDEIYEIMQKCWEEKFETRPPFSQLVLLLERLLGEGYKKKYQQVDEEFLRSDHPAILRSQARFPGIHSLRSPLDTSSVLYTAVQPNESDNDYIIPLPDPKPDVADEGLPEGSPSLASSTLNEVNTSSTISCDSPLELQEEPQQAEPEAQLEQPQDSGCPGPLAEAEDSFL

Take `COc1cc2ncnc(N3CCN(C(=O)Nc4ccc(Oc5ccccc5)cc4)CC3)c2cc1OC` [PDGFR Tyrosine Kinase Inhibitor III, 4-(6,7-Dimethoxy-4-quinazolinyl)-N-(4-phenoxyphenyl)-1-piperazinecarboxamide]: the “Effect on TNF-dependent intracellular calcium increase (luminescence AUC)” value in assay [1] is recorded as “prevented the detection of intracellular calcium increase”; in assay [1] (listed as PDGFR tyrosine kinase inhibitor) it was “signalling is blocked”. In addition, in assay [1] (inhibitor 3 μM to 0.45 nM, cells exposed to TNF), the “Inhibitory efficacy (dose response), compared with full-length PDGFR cells” value is listed as “equal inhibitory efficacy”.
Regarding Tumor necrosis factor (TNF) (ligand), in assay [2], the EC50, Ca2+-dependent aequorin luminescence, AUC over 10 minutes stood at 1.27 ng/mL; the EC50, Ca2+-dependent aequorin luminescence, Max-Min is 1.06 ng/mL; the EC80, Ca2+-dependent aequorin luminescence, AUC over 10 minutes worked out at 2.9 ng/mL; the EC80, Ca2+-dependent aequorin luminescence, Max-Min stood at 3 ng/mL.
